Data as given in patent EP4717706A1.

Key:
[1] = target: VLP2 (virus-like particles, capsid protein particles of AAV serotype 2) (AAV serotype 2 (AAV2)) (UniProt P03135); assay: ELISA on immobilised VLP2 (culture supernatant); A450 after 1:1 0.1 M glycine-NaOH pH 10.0, 15 min, 51.3°C divided by A450 untreated
[2] = target: VLP2 (virus-like particles, capsid protein particles of AAV serotype 2) (AAV serotype 2 (AAV2)) (UniProt P03135); assay: ELISA on immobilised VLP2 (purified protein); A450 after 1:1 0.1 M glycine-NaOH pH 10.0, 15 min, 60.1°C divided by A450 untreated
[3] = target: VLP2 (virus-like particles, capsid protein particles of AAV serotype 2) (AAV serotype 2 (AAV2)) (UniProt P03135); assay: ELISA on immobilised VLP2 (purified protein); A450 after 1:1 0.1 M glycine-NaOH pH 10.0, 15 min, 70°C divided by A450 untreated
[4] = target: VLP2 (virus-like particles, capsid protein particles of AAV serotype 2) (AAV serotype 2 (AAV2)) (UniProt P03135); assay: ELISA on immobilised VLP2 (purified protein); A450 after 1:1 0.1 M glycine-NaOH pH 10.0, 15 min, 66.1°C divided by A450 untreated
[5] = target: VLP2 (virus-like particles, capsid protein particles of AAV serotype 2) (AAV serotype 2 (AAV2)) (UniProt P03135); assay: ELISA on immobilised VLP2 (purified protein); A450 after 1:1 0.1 M glycine-NaOH pH 10.0, 15 min, 55.7°C divided by A450 untreated
[6] = target: VLP2 (virus-like particles, capsid protein particles of AAV serotype 2) (AAV serotype 2 (AAV2)) (UniProt P03135); assay: ELISA on immobilised VLP2 (purified protein, 5 µg/mL); A450 after 1:1 1 M NaOH with 1 mM CaCl2, 30°C, 30 min divided by A450 at 0 time
[7] = target: VLP2 (virus-like particles, capsid protein particles of AAV serotype 2) (AAV serotype 2 (AAV2)) (UniProt P03135); assay: ELISA on immobilised VLP2 (purified protein); A450 after 1:1 0.5 M NaOH, 30°C, 90 min divided by A450 at 0 time
[8] = target: VLP2 (virus-like particles, capsid protein particles of AAV serotype 2) (AAV serotype 2 (AAV2)) (UniProt P03135); assay: ELISA on immobilised VLP2 (purified protein, 5 µg/mL); A450 after 1:1 1 M NaOH with 1 mM CaCl2, 30°C, 30 min divided by A450 at 0 time; remark: listed apart in the source
[9] = target: VLP2 (virus-like particles, capsid protein particles of AAV serotype 2) (AAV serotype 2 (AAV2)) (UniProt P03135); assay: ELISA on immobilised VLP2 (purified protein, 5 µg/mL); A450 after 1:1 1 M NaOH with 1 mM CaCl2, 30°C, 60 min divided by A450 at 0 time
[10] = target: VLP2 (virus-like particles, capsid protein particles of AAV serotype 2) (AAV serotype 2 (AAV2)) (UniProt P03135); assay: ELISA on immobilised VLP2 (purified protein, 5 µg/mL); start of alkali treatment, the reference of the ratio
[11] = target: VLP2 (virus-like particles, capsid protein particles of AAV serotype 2) (AAV serotype 2 (AAV2)) (UniProt P03135); assay: ELISA on immobilised VLP2 (purified protein, 5 µg/mL); A450 after 1:1 1 M NaOH with 1 mM CaCl2, 30°C, 60 min divided by A450 at 0 time; remark: listed apart in the source
[12] = target: VLP2 (virus-like particles, capsid protein particles of AAV serotype 2) (AAV serotype 2 (AAV2)) (UniProt P03135); assay: ELISA on immobilised VLP2 (purified protein); start of alkali treatment, the reference of the ratio
[13] = target: VLP2 (virus-like particles, capsid protein particles of AAV serotype 2) (AAV serotype 2 (AAV2)) (UniProt P03135); assay: ELISA on immobilised VLP2 (purified protein, 5 µg/mL); A450 after 1:1 1 M NaOH with 1 mM CaCl2, 30°C, 30 min divided by A450 at 0 time; remark: listed apart in the source
[14] = target: VLP2 (virus-like particles, capsid protein particles of AAV serotype 2) (AAV serotype 2 (AAV2)) (UniProt P03135); assay: as above; remark: listed apart in the source
[15] = target: VLP2 (virus-like particles, capsid protein particles of AAV serotype 2) (AAV serotype 2 (AAV2)) (UniProt P03135); assay: ELISA on immobilised VLP2 (purified protein); A450 after 1:1 0.5 M NaOH, 30°C, 30 min divided by A450 at 0 time
[16] = target: VLP2 (virus-like particles, capsid protein particles of AAV serotype 2) (AAV serotype 2 (AAV2)) (UniProt P03135); assay: ELISA on immobilised VLP2 (purified protein, 5 µg/mL); A450 after 1:1 1 M NaOH with 1 mM CaCl2, 30°C, 20 min divided by A450 at 0 time
[17] = target: VLP2 (virus-like particles, capsid protein particles of AAV serotype 2) (AAV serotype 2 (AAV2)) (UniProt P03135); assay: ELISA on immobilised VLP2 (purified protein, 5 µg/mL); A450 after 1:1 1 M NaOH with 1 mM CaCl2, 30°C, 60 min divided by A450 at 0 time; remark: listed apart in the source
[18] = target: VLP2 (virus-like particles, capsid protein particles of AAV serotype 2) (AAV serotype 2 (AAV2)) (UniProt P03135); assay: ELISA on immobilised VLP2 (purified protein, 5 µg/mL); A450 after 1:1 1 M NaOH with 1 mM CaCl2, 30°C, 45 min divided by A450 at 0 time
[19] = target: VLP2 (virus-like particles, capsid protein particles of AAV serotype 2) (AAV serotype 2 (AAV2)) (UniProt P03135); assay: ELISA on immobilised VLP2 (culture supernatant); A450 after 1:1 1 M NaOH, 15 min, 30°C divided by A450 untreated
[20] = target: VLP2 (virus-like particles, capsid protein particles of AAV serotype 2) (AAV serotype 2 (AAV2)) (UniProt P03135); assay: ELISA on immobilised VLP2 (purified protein); A450 after 1:1 0.5 M NaOH, 30°C, 30 min divided by A450 at 0 time; remark: listed apart in the source
[21] = target: VLP2 (virus-like particles, capsid protein particles of AAV serotype 2) (AAV serotype 2 (AAV2)) (UniProt P03135); assay: ELISA on immobilised VLP2 (purified protein); A450 after 1:1 0.5 M NaOH, 30°C, 60 min divided by A450 at 0 time
[22] = target: VLP2 (virus-like particles, capsid protein particles of AAV serotype 2) (AAV serotype 2 (AAV2)) (UniProt P03135); assay: ELISA on immobilised VLP2 (culture supernatant, anti-His detection); A450 after 1:1 0.5 M NaOH, 30 min, 30°C divided by A450 untreated

UniProt P03135, sequence (P03135 whole entry): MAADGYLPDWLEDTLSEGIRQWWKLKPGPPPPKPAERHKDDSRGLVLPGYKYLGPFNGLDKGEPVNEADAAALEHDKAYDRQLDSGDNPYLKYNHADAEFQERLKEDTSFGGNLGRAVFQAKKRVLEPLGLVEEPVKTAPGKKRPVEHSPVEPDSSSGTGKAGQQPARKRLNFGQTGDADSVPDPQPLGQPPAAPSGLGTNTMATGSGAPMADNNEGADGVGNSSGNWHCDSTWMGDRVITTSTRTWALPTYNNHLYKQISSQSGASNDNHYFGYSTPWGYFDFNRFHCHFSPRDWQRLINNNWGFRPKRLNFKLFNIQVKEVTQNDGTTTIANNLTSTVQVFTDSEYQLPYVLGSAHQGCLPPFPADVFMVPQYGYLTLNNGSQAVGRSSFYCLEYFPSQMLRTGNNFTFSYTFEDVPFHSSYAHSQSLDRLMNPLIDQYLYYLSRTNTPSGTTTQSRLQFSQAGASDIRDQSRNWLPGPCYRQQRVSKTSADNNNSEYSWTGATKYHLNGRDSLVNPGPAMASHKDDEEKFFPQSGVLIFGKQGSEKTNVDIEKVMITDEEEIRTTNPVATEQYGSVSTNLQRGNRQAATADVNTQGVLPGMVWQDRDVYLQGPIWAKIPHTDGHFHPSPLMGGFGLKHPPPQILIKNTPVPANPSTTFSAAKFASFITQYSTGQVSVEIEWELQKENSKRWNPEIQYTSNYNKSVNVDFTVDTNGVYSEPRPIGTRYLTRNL

| Binder | Remaining activity [%] [1] | Remaining activity [%] [6] | Remaining activity [%] [7] | Remaining activity [%] [9] | Remaining activity [%] [10] | Remaining activity [%] [11] | Remaining activity [%] [12] | Remaining activity [%] [13] | Remaining activity [%] [15] | Remaining activity [%] [20] | Remaining activity [%] [21] | other results |
| --- | --- | --- | --- | --- | --- | --- | --- | --- | --- | --- | --- | --- |
| AVR8g with Y331H, F379S, K467N, A491T (receptor) MGSAGESDQITLPKNEVQLNAHVLQEPPKGETCTYDWQLITHPRDYSGEMEGEHSQILKLSNLTPGLYESKVIVEGQNAHSEGYVNVTVEPEPRKNRPPIAIVSPQFQEISLPTTSTVIDGSQSTDDDKIVQYHWEELKGPLREEKISEDTAILKLSNLVPGNYTFRLTVVDSDGATDSTTTNLTVNKAVDHHHHHH | 28.1% |  |  |  |  |  |  |  |  |  |  |  |
| AAV-binding protein AVR8g (receptor) MGSAGESDQITLPKNEVQLNAYVLQEPPKGETCTYDWQLITHPRDYSGEMEGEHSQILKLSNLTPGLYEFKVIVEGQNAHSEGYVNVTVEPEPRKNRPPIAIVSPQFQEISLPTTSTVIDGSQSTDDDKIVQYHWEELKGPLREEKISEDTAILKLSKLVPGNYTFRLTVVDSDGATDSTTANLTVNKAVDHHHHHH | 8.8% |  |  |  |  |  |  |  |  |  |  | Remaining activity [%] [2]: 4.18%; Remaining activity [%] [3]: 3.77%; Remaining activity [%] [4]: 0%; Remaining activity [%] [5]: 0.837% |
| AVR25c (AVR25a with K467N) (receptor) MGSAGESDQITLPKHEAQLKVYVLLVPPKGEASTYDWQLITHPRDYSGEMEGEHSQILKLSNLTPGLYEYRAVVEGQNAHSEGYVNVTVEPGPRKNRPPIAIVSPQFQEISLPTTSAVIDGSQSTDDDKIVQYHWEELKGPLREEKISEDTPILKLSNLVPGNYTFRLTVVDTDGATDSTTADLTVNKAVDHHHHHH |  | 16.3% | 66.9% | 2.19% | 100% | 1.96% | 100% | 22% | 91.2% |  |  | Remaining activity [%] [8]: 5.28%; Remaining activity [%] [14]: 2.87%; Remaining activity [%] [16]: 12.1%; Remaining activity [%] [17]: 0.197%; Remaining activity [%] [18]: 0%; Remaining activity [%] [19]: 33.5% |
| AVR25a (AVR21 with N329K, E401G, T426A, A461P) (receptor) MGSAGESDQITLPKHEAQLKVYVLLVPPKGEASTYDWQLITHPRDYSGEMEGEHSQILKLSNLTPGLYEYRAVVEGQNAHSEGYVNVTVEPGPRKNRPPIAIVSPQFQEISLPTTSAVIDGSQSTDDDKIVQYHWEELKGPLREEKISEDTPILKLSQLVPGNYTFRLTVVDTDGATDSTTADLTVNKAVDHHHHHH |  |  | 0% |  |  |  | 100% |  | 62.3% | 100% | 47.9% |  |
| AVR31 (AVR25c with G314D, I366F, V394A, K455R, K497E, V499I) (receptor) MGSADESDQITLPKHEAQLKVYVLLVPPKGEASTYDWQLITHPRDYSGEMEGEHSQFLKLSNLTPGLYEYRAVVEGQNAHSEGYANVTVEPGPRKNRPPIAIVSPQFQEISLPTTSAVIDGSQSTDDDKIVQYHWEELKGPLREERISEDTPILKLSNLVPGNYTFRLTVVDTDGATDSTTADLTVNEAIDHHHHHH |  | 53.8% |  | 10.6% | 100% | 13.3% |  | 48.3% |  |  |  |  |
| AAV-binding protein AVR21 (receptor) MGSAGESDQITLPKHEAQLNVYVLLVPPKGEASTYDWQLITHPRDYSGEMEGEHSQILKLSNLTPGLYEYRAVVEGQNAHSEGYVNVTVEPEPRKNRPPIAIVSPQFQEISLPTTSTVIDGSQSTDDDKIVQYHWEELKGPLREEKISEDTAILKLSQLVPGNYTFRLTVVDTDGATDSTTADLTVNKAVDHHHHHH |  | 1.53% |  |  | 100% | 0.694% | 100% |  |  | 16.9% | 0% | Remaining activity [%] [22]: 26.2% |
